The target in the assay is small laccase from Streptomyces coelicolor (SLAC), T1 copper-depleted mutant C288S (SLAC-T1D) (Streptomyces coelicolor) (UniProt Q9XAL8). The assay can be described thus: SEC-MALS.

For the substance “small laccase from Streptomyces coelicolor (SLAC), T1 copper-depleted mutant C288S (SLAC-T1D) (from UniProt Q9XAL8 1-343) (enzyme)”, the stoichiometry N was found to be 3.

These data come from publication PMC7335907.
